The text below walks through data of publication PMC3178889 (Nature neuroscience, 2011).

“Also recorded” adds a separate entry of the source.

For the assay, the system named is GST-UNC119. The experiment in a line: GST-UNC119 pulldown of proteins from retina lysates or HEK cells. Format: binding, bovine. Particulars: bovine or mouse retina lysate; Coomassie/LC-MS/MS or immunoblot.

B1: cone Tα: cone transducin α-subunit (protein)
chain: MGSGASAEDKELAKRSKELEKKLQEDADKEAKTVKLLLLGAGESGKSTIVKQMKIIHQDGYSPEECLEYKAIIYGNVLQSILAIIRAMPTLGIDYAEVSCVDNGRQLNNLADSIEEGTMPPELVEVIRKLWKDGGVQACFDRAAEYQLNDSASYYLNQLDRITAPDYLPNEQDVLRSRVKTTGIIETKFSVKDLNFRMFDVGGQRSERKKWIHCFEGVTCIIFCAALSAYDMVLVEDDEVNRMHESLHLFNSICNHKFFAATSIVLFLNKKDLFEEKIKKVHLSICFPEYDGNNSYEDAGNYIKSQFLDLNMRKDVKEIYSHMTCATDTQNVKFVFDAVTDIIIKENLKDCGLF
As for B1, the “interaction with GST-UNC119 in pulldown from retina lysate” value (from here on “interaction with GST-UNC119 in pulldown”) was “Pulldown of rod and cone Tα”.

B2: farnesylated Tγ: farnesylated transducin γ-subunit (protein)
chain: MPVINIEDLTEKDKLKMEVDQLKKEVTLERMMVSKCCEEVRDYIEERSGEDPLVKGIPEDKNPFKELKGGCVIS
modifications: farnesylated
As for B2, the “interaction with GST-UNC119 in pulldown” value was “not with farnesylated Tγ”.

B3: recoverin: Ca^2+-binding protein recoverin (protein)
chain: MGNSKSGALSKEILEELQLNTKFTEEELSAWYQSFLKECPSGRITRQEFESIYSKFFPDSDPKAYAQHVFRSFDANSDGTLDFKEYVIALHMTTAGKPTQKLEWAFSLYDVDGNGTISKNEVLEIVMAIFKMIKPEDVKLLPDDENTPEKRAEKIWAFFGKKEDDKLTEEEFIEGTLANKEILRLIQFEPQKVKERIKEKKQ
Take B3: the “interaction with GST-UNC119 in pulldown” value is “failed to interact”.

B4: GCAP1: N-myristoylated GCAP1, Ca^2+-binding protein (protein)
chain: MGNIMEGKSVEELSSTECHQWYKKFMTECPSGQLTLYEFRQFFGLKNLSPSASQYVEQMFETFDFNKDGYIDFMEYVAALSLVLKGKVEQKLRWYFKLYDVDGNGCIDRDELLTIIRAIRTINPWSDSSMSAEEFTDTVFAKIDINGDGELSLEEFMEGVQKDQMLLDTLTRSLDLTGIVRRLQNGEHEEAGTGDLAAEAAG
modifications: N-myristoylated
Regarding B4, the “interaction with GST-UNC119 in pulldown” value is “does not interact with GST-UNC119; also recorded: failed to interact”.
